In one assay the target is T1, mouse ROR1-ECD (mouse, UniProt Q9Z139 30-406).
T1 construct: extracellular domain; also called mROR1
In words: phage antibody protein ELISA. How it is done:
(§1) Binding specificities of the 45 phage antibodies were determined by protein ELISA against human ROR1-ECD, human ROR2-ECD and mouse ROR1-ECD (FIG. 12).
On the technique in general: An ELISA detects its analyte on a solid surface through an enzyme-linked reagent.

A further assay has as its target T2, human ROR2-ECD (human, UniProt Q01974 34-403).
T2 construct: extracellular domain; also called hROR2
In words: phage antibody protein ELISA. How it is done:
as §1

Assay [1] deals with T3, human ROR1 extracellular domain (ECD) protein (human, UniProt Q01973 30-406).
T3 construct: also called hROR1-ECD; human ROR1-ECD
The experiment in a line: competitive phage ELISA: soluble ROR1 against ROR1-coated plate. How it is done:
Purified phage antibodies were first diluted serially in PBST buffer, and tested for binding to a ROR1-coated plate. The dilution that gave 50-80% saturating signal was used in the solution binding assay in which phage were first incubated with increasing concentration of ROR1 for one to two hours, and then transferred to a ROR1-coated plate for 10-15 minutes to capture the unbound phage.

The target in assay [2] is T4, ROR1 extracellular domain Fc-fusion, dimer (human, UniProt Q01973 30-406).
T4 construct: also called ROR1 dimer; hROR1 dimeric ECD-Fc fusion protein; not shown: Fc part
In words: SPR, immobilised ROR1 dimer, antibody injected, 1:1 model; second entry of 601-14. How it is done:
(§2) The binding affinities of ROR1 extracellular domain dimer and monomer for anti-ROR1 antibodies were determined by surface plasmon resonance (SPR). ROR1 extracellular domain Fc-fusion, “dimer,” and ROR1 extracellular domain Fc fusion:Fc heterodimer, “monomer,” are the dimer and monomeric forms of ROR1 used for affinity analysis, respectively. Briefly, ROR1 dimer and monomer were directly immobilized to a CM4 chip using an amine coupling kit and 100 mM ethylenediamine in 100 mM Sodium Borate buffer, pH 8.0 as the blocking reagent. Approximately 100-150 RU of ROR1 dimer and monomer were immobilized on separate flow cells and an un-derivatized flow cell was used as a reference control. […] Dissociation was followed for 180 seconds. The association constant, dissociation constant, and affinity of each anti-ROR1 antibody was calculated using the Biacore T200 Evaluation Software 1:1 binding model.
(§3) Sensorgrams were normalized to 100 RU using the “binding stability point” at the end of the association phase but before the dissociation phase.

In assay [3] the target is T5, ROR1 extracellular domain Fc fusion:Fc heterodimer, monomer (human).
T5 construct: Heterodimer of one ROR1 ECD-Fc chain and one Fc chain; also called ROR1 monomer; hROR1 monomeric ECD-Fc fusion protein; not shown: Fc part; Fc alone
In words: SPR, immobilised ROR1 monomer, antibody injected, 1:1 model; second entry of 601-14. How it is done:
as §2, §3

In assay [4] the target is T5, ROR1 extracellular domain Fc fusion:Fc …. In words: SPR, immobilised ROR1 monomer, antibody injected, 1:1 model. How it is done:
as §2, §3
In general terms: Surface plasmon resonance follows binding to a sensor surface in real time, without labels.

Assay [5] has as its target T4, ROR1 extracellular domain Fc-fusion, …. In words: SPR, immobilised ROR1 dimer, antibody injected, 1:1 model; apparent affinity. How it is done:
as §2, §3

Assay [6] shares this target. The experiment in a line: SPR, immobilised ROR1 dimer, antibody injected, 1:1 model. How it is done: as §2, §3
For assay [7] the target is unchanged. The experiment in a line: SPR, immobilised ROR1 dimer, antibody injected, 1:1 model; apparent affinity; second entry of 601-14. How it is done: as §2, §3

T4 sequence (Q01973 30-406): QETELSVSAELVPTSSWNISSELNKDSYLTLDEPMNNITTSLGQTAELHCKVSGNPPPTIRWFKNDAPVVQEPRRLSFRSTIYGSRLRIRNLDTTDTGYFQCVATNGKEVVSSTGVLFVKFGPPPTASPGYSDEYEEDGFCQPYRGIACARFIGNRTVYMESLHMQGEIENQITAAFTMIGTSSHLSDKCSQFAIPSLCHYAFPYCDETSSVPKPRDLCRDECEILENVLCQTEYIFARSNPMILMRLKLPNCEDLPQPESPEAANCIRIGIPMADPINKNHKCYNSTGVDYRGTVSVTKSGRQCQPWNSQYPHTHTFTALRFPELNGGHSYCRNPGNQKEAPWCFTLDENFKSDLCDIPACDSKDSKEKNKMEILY
T5 sequence (Q01973 30-406, one chain of several): as the sequence (Q01973 30-406) above
T2 sequence (Q01974 34-403): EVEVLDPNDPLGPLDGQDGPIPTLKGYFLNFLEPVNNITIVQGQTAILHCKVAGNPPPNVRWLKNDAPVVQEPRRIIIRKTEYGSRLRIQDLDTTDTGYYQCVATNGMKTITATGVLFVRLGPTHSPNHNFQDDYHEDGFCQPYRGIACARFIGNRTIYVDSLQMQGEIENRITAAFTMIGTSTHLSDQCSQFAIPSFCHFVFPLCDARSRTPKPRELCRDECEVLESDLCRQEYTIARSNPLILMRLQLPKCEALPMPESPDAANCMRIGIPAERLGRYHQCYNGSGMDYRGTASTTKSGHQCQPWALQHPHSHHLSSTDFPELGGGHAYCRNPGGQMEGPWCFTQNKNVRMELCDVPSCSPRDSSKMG
T3 sequence (Q01973 30-406 limits assumed): as the sequence (Q01973 30-406) above
T1 sequence (Q9Z139 30-406): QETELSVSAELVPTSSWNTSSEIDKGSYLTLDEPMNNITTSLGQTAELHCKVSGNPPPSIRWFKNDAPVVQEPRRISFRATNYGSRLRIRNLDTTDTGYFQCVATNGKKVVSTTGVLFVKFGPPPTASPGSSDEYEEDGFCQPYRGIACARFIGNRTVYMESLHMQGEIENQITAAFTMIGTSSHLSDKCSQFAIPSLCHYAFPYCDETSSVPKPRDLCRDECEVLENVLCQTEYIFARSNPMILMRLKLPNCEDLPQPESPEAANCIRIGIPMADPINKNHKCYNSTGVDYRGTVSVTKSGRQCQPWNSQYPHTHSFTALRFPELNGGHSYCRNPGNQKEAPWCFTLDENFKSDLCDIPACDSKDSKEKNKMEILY

B1: P601-56 (scFv, V domains shown)
VH: QLQLQESGPGLVKPSETLSLTCTVSGGSISSSSYYWGWIRQPPGKGLEWIGSIYYSGSTYYNPSLKSRVTISVDTSKNQFSLKLGSVTAADTAVYYCARHDGTDAFDIWGQGTTVTVSS
VL: QSVLTQPASVSGSPGQSITISCTGTSSDFGDYDYVSWYQQHPGKAPKLMIYDVSDRPSGVSNRFSGSKSGNTASLTISGLQAEDEADYFCSSLTTSSTLVFGGGTKLTVL
By IC50 is commonly meant the concentration at which inhibition is half-maximal. High values mean weaker potency in that assay, low ones greater potency in that assay. As to B1, the binding result with mouse ROR1-ECD and with human ROR2-ECD was “no binding” throughout. In addition, the half-inhibitory concentration (IC50) in [1] was 1850 pM.

B2: Antibody 601-14 (antibody, V domains shown)
VH: QVQLVQSGAEVKKPGESLKISCKDSGYSFTNYWLGWVRQMPGKGLEWMGIIYPGDSDTRYSPSFRGQVTISADKSISTAYLQWSSLKASDTAMYYCARLNLATHTAFDIWGQGTTVTVSS
VL: QSVLTQPASVSGSPGQSITISCTGTSSDVGGYNYVSWYQQHPGKAPKLMIYDVSNRPSGVSNRFSGSKSGNTASLTISGLQAEDEADYYCSSYTSSSTLWVFGGGTKLTVLG
A word on the koff: it is a measure of how fast the partners let go of each other. A high value points to a short-lived complex. One may read the kon as the second-order rate constant of association. Read a low kon as slower complex formation. For B2, the koff worked out at 0.0015 s⁻¹ in [2], 0.0021 s⁻¹ in assay [3], 0.0013 s⁻¹ in assay [4] and 0.00066 s⁻¹ in assay [6]. Besides, the kon came out at 2.4e+06 M⁻¹ s⁻¹ in assay [2], 2.4e+06 M⁻¹ s⁻¹ in assay [3], 3.2e+06 M⁻¹ s⁻¹ in assay [4] and 2.7e+06 M⁻¹ s⁻¹ in assay [6]. Besides, the Kd is 800 pM in assay [3], 400 pM in assay [4], 200 pM in [5] and 600 pM in assay [7].

(Values after US20180009892A1 (EUREKA THERAPEUTICS, published 2018).)
